Experimental findings from patent US20200055937A1 (REMD BIOTHERAPEUTICS, published 2020) are described below.

First the molecules themselves.
B1: Humanized Ab 8 (VH3 + VL2) (antibody, human IgG1, kappa, V domains shown)
VH: QVQLVQSGAEVKKPGASVKVSCKASGYKFTDHFINWVKQAPGQGLEWIGDINPNNGGTNSNQKFEGRVTLTVDTSISTAYMELSRLRSDDTAVYYCARLRREYFYAMDYWGQGTLVTVSS
VL: DIVMTQSPLSLPVTPGEPASISCRSSKSLLHSNGITYLYWYLQKPGQSPQLLIYQMSNLASGVPDRFSSSGSGTDFTLKISRVEAEDVGVYYCAQNLELPLTFGGGTKVEIKR
notes: Humanized IgG1 derived from MAb A4, full length, HEK293
B2: Humanized Ab 6 (VH2 + VL3) (antibody, human IgG1, kappa)
heavy: not shown
light: DIVMTQSPLSLPVTPGEPASISCRSSKSLLHSNGITYLYWYLQKPGQSPQLLIYQMSNLASGVPDRFSSSGSGTDFTLKISRVEAEDVGVYYCAQNLELPLTFGGGTKLEIKRTVAAPSVFIFPPSDEQLKSGTASVVCLLNNFYPREAKVQWKVDNALQSGNSQESVTEQDSKDSTYSLSSTLTLSKADYEKHKVYACEVTHQGLSSPVTKSFNRGEC
notes: as for B1
B3: Humanized Ab 7 (VH3 + VL1) (antibody, human IgG1, kappa, V domains shown)
VH: QVQLVQSGAEVKKPGASVKVSCKASGYKFTDHFINWVKQAPGQGLEWIGDINPNNGGTNSNQKFEGRVTLTVDTSISTAYMELSRLRSDDTAVYYCARLRREYFYAMDYWGQGTLVTVSS
VL: DIVMTQSPLSLPVTPGEPASISCRSSKSLLHSNGITYLYWYLQKPGQSPQLLIYQMSNLASGVPDRFSGSGSGTDFTLKISRVEAEDVGVYYCAQNLELPLTFGGGTKVEIKR
notes: as for B1
B4: Humanized Ab 3 (VH1 + VL3) (antibody, human IgG1, kappa)
heavy: not shown
light: DIVMTQSPLSLPVTPGEPASISCRSSKSLLHSNGITYLYWYLQKPGQSPQLLIYQMSNLASGVPDRFSSSGSGTDFTLKISRVEAEDVGVYYCAQNLELPLTFGGGTKLEIKRTVAAPSVFIFPPSDEQLKSGTASVVCLLNNFYPREAKVQWKVDNALQSGNSQESVTEQDSKDSTYSLSSTLTLSKADYEKHKVYACEVTHQGLSSPVTKSFNRGEC
notes: as for B1
B5: Humanized Ab 13 (VH5 + VL3) (antibody, human IgG1, kappa, V domains shown)
VH: QVQLVQSGAEVVKPGASVKISCKASGYKFTDHFINWVKQNPGQGLEWIGDINPNNGGTNSNQKFEGRATLTVDTSISTAYMELSRLRSDDTAVYYCARLRREYFYAMDYWGQGTLVTVSS
VL: DIVMTQSPLSLPVTPGEPASISCRSSKSLLHSNGITYLYWYLQKPGQSPQLLIYQMSNLASGVPDRFSSSGSGTDFTLKISRVEAEDVGVYYCAQNLELPLTFGGGTKLEIKR
notes: as for B1
B6: Humanized Ab 10 (VH4 + VL1) (antibody, human IgG1, kappa, V domains shown)
VH: QVQLVQSGAEVKKPGASVKISCKASGYKFTDHFINWVKQAPGQGLEWIGDINPNNGGTNSNQKFEGRATLTVDTSISTAYMELSRLRSDDTAVYYCARLRREYFYAMDYWGQGTLVTVSS
VL: DIVMTQSPLSLPVTPGEPASISCRSSKSLLHSNGITYLYWYLQKPGQSPQLLIYQMSNLASGVPDRFSGSGSGTDFTLKISRVEAEDVGVYYCAQNLELPLTFGGGTKVEIKR
notes: as for B1
B7: Humanized Ab 12 (VH4 + VL3) (antibody, human IgG1, kappa)
heavy: not shown
light: DIVMTQSPLSLPVTPGEPASISCRSSKSLLHSNGITYLYWYLQKPGQSPQLLIYQMSNLASGVPDRFSSSGSGTDFTLKISRVEAEDVGVYYCAQNLELPLTFGGGTKLEIKRTVAAPSVFIFPPSDEQLKSGTASVVCLLNNFYPREAKVQWKVDNALQSGNSQESVTEQDSKDSTYSLSSTLTLSKADYEKHKVYACEVTHQGLSSPVTKSFNRGEC
notes: as for B1
B8: Humanized Ab 1 (VH1 + VL1) (antibody, human IgG1, kappa, V domains shown)
VH: QVQLVQSGAEVKKPGASVKVSCKASGYKFTDHFINWVRQAPGQGLEWMGDINPNNGGTNSNQKFEGRVTMTRDTSISTAYMELSRLRSDDTAVYYCARLRREYFYAMDYWGQGTLVTVSS
VL: DIVMTQSPLSLPVTPGEPASISCRSSKSLLHSNGITYLYWYLQKPGQSPQLLIYQMSNLASGVPDRFSGSGSGTDFTLKISRVEAEDVGVYYCAQNLELPLTFGGGTKVEIKR
notes: as for B1
B9: Humanized Ab 5 (VH2 + VL2) (antibody, human IgG1, kappa)
heavy: not shown
light: DIVMTQSPLSLPVTPGEPASISCRSSKSLLHSNGITYLYWYLQKPGQSPQLLIYQMSNLASGVPDRFSSSGSGTDFTLKISRVEAEDVGVYYCAQNLELPLTFGGGTKVEIKRTVAAPSVFIFPPSDEQLKSGTASVVCLLNNFYPREAKVQWKVDNALQSGNSQESVTEQDSKDSTYSLSSTLTLSKADYEKHKVYACEVTHQGLSSPVTKSFNRGEC
notes: as for B1
B10: Humanized Ab 2 (VH1 + VL2) (antibody, human IgG1, kappa)
heavy: not shown
light: DIVMTQSPLSLPVTPGEPASISCRSSKSLLHSNGITYLYWYLQKPGQSPQLLIYQMSNLASGVPDRFSSSGSGTDFTLKISRVEAEDVGVYYCAQNLELPLTFGGGTKVEIKRTVAAPSVFIFPPSDEQLKSGTASVVCLLNNFYPREAKVQWKVDNALQSGNSQESVTEQDSKDSTYSLSSTLTLSKADYEKHKVYACEVTHQGLSSPVTKSFNRGEC
notes: as for B1
B11: Humanized Ab 4 (VH2 + VL1) (antibody, human IgG1, kappa, V domains shown)
VH: QVQLVQSGAEVKKPGASVKVSCKASGYKFTDHFINWVRQAPGQGLEWIGDINPNNGGTNSNQKFEGRVTMTVDTSISTAYMELSRLRSDDTAVYYCARLRREYFYAMDYWGQGTLVTVSS
VL: DIVMTQSPLSLPVTPGEPASISCRSSKSLLHSNGITYLYWYLQKPGQSPQLLIYQMSNLASGVPDRFSGSGSGTDFTLKISRVEAEDVGVYYCAQNLELPLTFGGGTKVEIKR
notes: as for B1

For this assay, the target named is T1, CTLA4-his (UniProt P16410 36-161, limits assumed).
T1 construct: construct not described; also called Ag CTLA4-his; Antigen CTLA4-his; not shown: his tag
T1 sequence (looked up): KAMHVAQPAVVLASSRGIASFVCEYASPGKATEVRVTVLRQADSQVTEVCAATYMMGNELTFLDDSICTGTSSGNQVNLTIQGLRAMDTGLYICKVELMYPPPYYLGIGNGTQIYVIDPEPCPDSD
Kind of assay: SPR Biacore T200, antibody from supernatant captured by anti-human Fc, CTLA4-his injected. The method, then:
Affinity ranking of the fifteen humanized antibodies was determined using a Surface Plasmon Resonance (SPR) biosensor, Biacore T200 (GE Healthcare). Anti-human Fc gamma specific antibody was immobilized onto the sensor chip using amine coupling method. […] After equilibration, Ag CTLA4-his was injected for 300 seconds (association phase) followed by the injection of running buffer for 600s (dissociation phase). Responses of reference flow cell (flow cell 1) were subtracted from those of humanized antibodies flow cells during each cycle. The surface was regenerated before the injection of other humanized antibodies. The process was repeated until all antibodies are analyzed. The off-rates of humanized antibodies were obtained from fitting the experimental data locally to 1:1 interaction model using the Biacore 8K evaluation software. The antibodies were ranked by their dissociation rate constants (off-rates, kd).
For orientation: In SPR one partner is held on a chip, and binding of the other changes the refractive index at the surface.
B1 gave a Kd of 0.791 nM, a dissociation rate constant (koff) of 0.000523 s⁻¹ and a kon of 661000 M⁻¹ s⁻¹.
For B2, binding was characterised by a dissociation constant (Kd) of 1.16 nM, the koff was 0.000347 s⁻¹ and the kon was determined as 300000 M⁻¹ s⁻¹.
Taken in the same sequence, the figures for B3 were 0.956 nM, 0.000434 s⁻¹ and 454000 M⁻¹ s⁻¹.
For the molecule B4, binding was characterised by a dissociation constant (Kd) of 1.17 nM, the koff amounted to 0.000437 s⁻¹ and the kon is 375000 M⁻¹ s⁻¹.
B5 had a Kd of 0.542 nM, a koff of 0.00016 s⁻¹ and a kon of 295000 M⁻¹ s⁻¹.
Taken in the same sequence, the figures for B6 were 0.852 nM, 0.000288 s⁻¹ and 338000 M⁻¹ s⁻¹.
On the same counts, the results for B7 are 0.435 nM, 0.000397 s⁻¹ and 913000 M⁻¹ s⁻¹.
Molecule B8 returned a Kd of 1.2 nM, a koff of 0.000338 s⁻¹ and a kon of 281000 M⁻¹ s⁻¹.
Molecule B9 registered a Kd of 1.12 nM, a koff of 0.000345 s⁻¹ and a kon of 309000 M⁻¹ s⁻¹.
As to B10, the Kd came to 1 nM, the dissociation rate constant (koff) was found to be 0.000351 s⁻¹ and the kon came out at 350000 M⁻¹ s⁻¹.
In turn, B11 registered a Kd of 0.83 nM, a koff of 0.000611 s⁻¹ and a kon of 736000 M⁻¹ s⁻¹.

One may read the Kd as the equilibrium constant for the complex coming apart. Lower therefore signals tighter binding. One may read the koff as a measure of how fast the partners let go of each other. By kon is commonly meant the second-order rate constant of association. Higher therefore signals fast association.
